Measurements as given in patent US20240317871A1 (IMMUNOMIC THERAPEUTICS, published 2024).
Changes are numbered by the printed parent chain.

T1: human HVEM (human, UniProt Q92956 39-202, limits assumed)
T1 sequence (looked up): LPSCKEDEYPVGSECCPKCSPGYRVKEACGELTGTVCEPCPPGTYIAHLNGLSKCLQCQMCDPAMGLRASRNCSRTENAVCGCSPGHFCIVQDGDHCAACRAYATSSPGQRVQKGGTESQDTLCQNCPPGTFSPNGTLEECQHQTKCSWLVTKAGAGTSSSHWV

T2: murine HVEM (murine, UniProt Q80WM9 39-206, limits assumed)
T2 construct: also called Mouse
T2 sequence (looked up): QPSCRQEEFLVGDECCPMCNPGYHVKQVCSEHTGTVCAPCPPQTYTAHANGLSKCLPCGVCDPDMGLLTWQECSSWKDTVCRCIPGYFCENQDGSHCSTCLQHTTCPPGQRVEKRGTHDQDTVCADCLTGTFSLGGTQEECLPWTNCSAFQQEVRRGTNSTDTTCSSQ

T3: cynomolgus monkey HVEM (cynomolgus monkey, UniProt A0A2K5W0R1 39-203)
T3 sequence: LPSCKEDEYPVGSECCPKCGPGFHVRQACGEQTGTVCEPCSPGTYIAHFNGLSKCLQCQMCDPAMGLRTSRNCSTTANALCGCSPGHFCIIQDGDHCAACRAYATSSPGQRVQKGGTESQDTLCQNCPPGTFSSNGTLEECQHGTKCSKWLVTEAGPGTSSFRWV

T4: Human HEVM recombinant protein (Sino Biological, 10334-H02H) (human, UniProt Q92956 39-202)
T4 construct: construct known only by catalogue number; also called HVEM; human HVEM
T4 sequence (looked up): T1 sequence (looked up)

T5: His-tagged human HVEM (human, UniProt Q92956 39-202, limits assumed)
T5 construct: Analyte of the BLI assay, 200 nM in PBS; not shown: His tag
T5 sequence (looked up): T1 sequence (looked up)

B1: Ab_051 (H5S19-4A6A) (antibody, V domains shown)
VH: QVQLKESGPGLVAPSQSLSITCTVSGFSLTGYGVNWVRQPPGKGLEWLGMIWGDGNTDYNSALKSRLSISKDNSKSQVFLKMNSLQTDDTARYYCARSYGSYWGQGTLVTVSA
VL: QIVLTQSPAIMSASPGEKVTMTCSASSSVSYMYWYQQKPGSSPRLLIYDTSNLASGVPVRFSGSGSGTSYSLTISRMEAEDAATYYCQQWSSYPFTFGSGTKLEIK
notes: also called Ab_51
B2: Ab_036 (H5S15-12A13A) (antibody, V domains shown)
VH: EVQLQQSGAELVKPGASVKLSCTASGFNIKDTYMHWVKQRPEQGLEWIGRIDPANGNTKFDPKFQGKATITADTSSNTAYLQLSSLTSEDTAVYYCASRGGSSFDYWGQGTTLTVSS
VL: DIVLTQSPASLAVSLGQRATISCKASQSVDYDGESYMNWYQQKPGQPPKLLIYAASNLDSGIPARFSGSGSGTDFTLNIHPVEEEDAATYYCQQSNEDPLTFGAGTKLELK
notes: also called Ab_36
B3: Ab_043 (H5S15-29A24A) (antibody, V domains shown)
VH: EVQLQQSGAELVRPGALVKLSCKASGFNIKDDYMHWVKQRPEQGLEWIGWIDPENGNTIYDPKFQGKASITADTSSNTAYLQLSSLTSEDTAVYYCARGYSSSPYWGQGTLVTVSA
VL: B2 VL with E34N, G45R, D59E, S67R, L100F, A104S, L110I
notes: also called Ab_43
B4: Ab_072 (H5S20-15A13A) (antibody, V domains shown)
VH: B2 VH with F60Y, S98T, R99S, F104Y
VL: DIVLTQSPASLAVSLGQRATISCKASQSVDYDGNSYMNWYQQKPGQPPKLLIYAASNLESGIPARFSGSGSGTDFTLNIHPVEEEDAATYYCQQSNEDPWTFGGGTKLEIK
notes: also called Ab_72
B5: Ab_080 (H5S20-27A23A) (antibody, V domains shown)
VH: EVQLQQSGTVLARPGASVKMSCKASGYSFTSYWMHWLKQRPGQGLEWIGAIYPGNSDTVFNQKFKGKAKLTAVTSATTAYMELSSLTNEDSAVYYCTKEPRTIEGAWFTYWGQGTLVTVSA
VL: DIVMTQSPSSLTVPAGEKVTMSCKSSQSLLNSENQKNYLTWYQQKPGQPPKLLIYWASTRESGVPDRFTGSGSGTDFTLTISSVQAEDLAVYYCQSDYSYPLTFGAGTKLELK
notes: also called Ab_80
B6: Ab_065 (H5S20-39A29A) (antibody, V domains shown)
VH: EVKLVESGGGLVKPGGSLKLSCAASGFTFSSYAMSWVRQTPETRLEWVASISSGGNTYYPDSVKGRFTISRDNVRNILYLQMSSLRSEDTAMYFCTRGGYGSSHVIWGQGTTLTVSS
VL: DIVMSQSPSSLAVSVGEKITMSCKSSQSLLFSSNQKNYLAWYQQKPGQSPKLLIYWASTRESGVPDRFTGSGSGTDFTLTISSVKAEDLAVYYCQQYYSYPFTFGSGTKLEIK
notes: also called Ab_65
B7: Ab_063 (H5S20-4A4A) (antibody, V domains shown)
VH: B6 VH with V12M, N56S, H104Y
VL: DIVMSQSPSSLAVSVGEKITMSCKSSQSLLFSSIQKNYLAWYQQKPGQSPKLLVYWASTRESGVPDRFTGSGSGTDFTLTISSVKAEDLAVYYCQQYYSYPFTFGSGTKLEIK
notes: also called Ab_159; Ab_63
B8: Ab_066 (H5S20-1A1A) (antibody, V domains shown)
VH: B6 VH with N56D, Y58F, P60R, G65A, N73D, N76D, H104F
VL: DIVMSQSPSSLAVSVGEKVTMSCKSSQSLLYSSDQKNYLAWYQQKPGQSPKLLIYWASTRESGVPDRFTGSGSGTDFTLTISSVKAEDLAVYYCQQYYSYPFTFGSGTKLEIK
notes: also called Ab_66
B9: Ab_064 (H5S20-6A6A) (antibody, V domains shown)
VH: B6 VH with Y32F, T43K, S62N, V74A, R75G, F94Y, T96A, H104Y
VL: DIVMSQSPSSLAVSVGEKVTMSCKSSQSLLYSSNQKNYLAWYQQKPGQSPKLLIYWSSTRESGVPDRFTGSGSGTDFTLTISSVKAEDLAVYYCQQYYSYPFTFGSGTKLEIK
notes: also called Ab_64
B10: Ab_078 (H5S20-45A34A) (antibody, V domains shown)
VH: EVQLQQSGAELVRSGASVKLSCAASGFNIKDYYMHWVKQRPEQGLEWIGWIDPENGDTEFAPKFQGKATLTADTSSNTAYLQLSSLTSEDTAVYYCNTRTLGYWGQGTLVTVSA
VL: QIVLTQSPALMSASPGEKVTMTCTASSSVSYMYWYQQKPRSSPKPWIYLTSNLASGVPARFSGSGSGTSYSLTISSMEAEDAATYYCQQWSSNPLTFGAGTKLELR
notes: also called Ab_78

Each binder was assayed against T1, human HVEM (assay: ELISA).

**Q.** How did the ELISA signal turn out when B1 was run?
**A.** 3.18

**Q.** For B2, which ELISA signal is on record?
**A.** 3.26

**Q.** How did the ELISA signal turn out when B3 was run?
**A.** 3.22

**Q.** Which ELISA signal does the source give for B4 here?
**A.** 3.36

**Q.** How did the ELISA signal turn out when B5 was run?
**A.** 3.07

**Q.** B6 was tested. Which ELISA signal did it give?
**A.** 3.24

**Q.** B7 was tested. Which ELISA signal did it give?
**A.** 3.1

**Q.** Which ELISA signal does the source give for B8 here?
**A.** 3.28

**Q.** With B9 as the binder, how does the ELISA signal read?
**A.** 3.07

**Q.** Which ELISA signal does the source give for B10 here?
**A.** 3.08

The binders below were run against T2, murine HVEM (assay: ELISA).

**Q.** B1 was tested. Which ELISA signal did it give?
**A.** 0.043

**Q.** With B2 as the binder, how does the ELISA signal read?
**A.** 0.046

**Q.** For B3, which ELISA signal is on record?
**A.** 0.043

**Q.** With B4 as the binder, how does the ELISA signal read?
**A.** 0.045

**Q.** Which ELISA signal does the source give for B5 here?
**A.** 0.048

**Q.** For B6, which ELISA signal is on record?
**A.** 0.044

**Q.** Which ELISA signal does the source give for B7 here?
**A.** 0.043

**Q.** B8 was tested. Which ELISA signal did it give?
**A.** 0.044

**Q.** How did the ELISA signal turn out when B9 was run?
**A.** 0.044

**Q.** For B10, which ELISA signal is on record?
**A.** 0.046

These binders were tested against T3, cynomolgus monkey HVEM (assay: ELISA).

**Q.** With B1 as the binder, how does the ELISA signal read?
**A.** 0.563

**Q.** With B2 as the binder, how does the ELISA signal read?
**A.** 0.079

**Q.** How did the ELISA signal turn out when B3 was run?
**A.** 0.058

**Q.** For B4, which ELISA signal is on record?
**A.** 0.062

**Q.** How did the ELISA signal turn out when B5 was run?
**A.** 2.26

**Q.** With B6 as the binder, how does the ELISA signal read?
**A.** 1.52

**Q.** For B7, which ELISA signal is on record?
**A.** 3.13

**Q.** With B8 as the binder, how does the ELISA signal read?
**A.** 0.883

**Q.** B9 was tested. Which ELISA signal did it give?
**A.** 0.987

**Q.** How did the ELISA signal turn out when B10 was run?
**A.** 0.063

What follows are binders tested against T4, Human HEVM recombinant protein (Sino …) (assay: competition ELISA, competitor LIGHT-His).
Method: The competitive activity of HVEM antibody to BTLA or LIGHT was evaluated with ELISA-based competitive assay. Briefly Human HEVM recombinant protein (Sino Biological, 10334-H02H, 4 ug/ml, 100 ul/well) was coated to ELISA plate (Thermo Scientific, 469949, 4C overnight). A pre-mixture of HVEM antibody clone with seral dilution and 400 nM BTLA-His (R&D systems, 9235-BT-050) or LIGHT-His (SinoBiological, 10386-H07H) recombinant protein was made and added to the ELISA plate after blocking with 3% BSA (200 ul/well, RT 2 Hr) for 1 Hr at RT. The serial dilutions of HVEM antibody clone involve 7 different concentrations, with a 3-fold dilution performed start from 100 nM for BTLA or 325 nM for LIGHT competitive assay. The concentration was the final concentration. Plate was washed with PBST; diluted HRP-anti-His (Biolegend, 652504, 1:1000) with PBS containing 5% FBS was added 100 ul per well for 1 Hr at RT. TMB substrate (KPL, 52-00-00) 100 ul per well after washing and incubate at room temperature for 15 minutes; then stop the development by adding 100 ul stop solution (KPL, 50-85-06). Plate was read at 450 nm. The IC50 was calculated using GraphPad Prism software (GraphPad Software, Inc. San Diego, CA, USA).

**Q.** With B1 as the binder, how does the IC50 read?
**A.** 18.6 nM

**Q.** With B2 as the binder, how does the IC50 read?
**A.** 18.7 nM

**Q.** Which IC50 does the source give for B3 here?
**A.** 15.3 nM

**Q.** How did the IC50 turn out when B4 was run?
**A.** 252 nM

**Q.** Which IC50 does the source give for B5 here?
**A.** 37.3 nM

**Q.** B6 was tested. Which IC50 did it give?
**A.** 8 nM

**Q.** B7 was tested. Which IC50 did it give?
**A.** 5.7 nM

**Q.** For B8, which IC50 is on record?
**A.** 10.4 nM

**Q.** B9 was tested. Which IC50 did it give?
**A.** 8.7 nM

**Q.** B10 was tested. Which IC50 did it give?
**A.** 14.5 nM

These binders were tested against T4, Human HEVM recombinant protein (Sino …) (assay: competition ELISA, competitor BTLA-His).
Procedure, shortened: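 Competitor (BTLA-His or LIGHT-His, 400 nM) premixed with 7-point 3-fold antibody dilutions, final top 100 nM or 325 nM respectively, then added 1 Hr at RT to plate-coated HVEM (4 ug/ml). His-tag signal read at 450 nm after HRP/TMB; IC50 derived.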

**Q.** Which IC50 does the source give for B1 here?
**A.** 1.3 nM

**Q.** How did the IC50 turn out when B2 was run?
**A.** 0.8 nM

**Q.** How did the IC50 turn out when B3 was run?
**A.** 1.1 nM

**Q.** How did the IC50 turn out when B4 was run?
**A.** 1.6 nM

**Q.** B5 was tested. Which IC50 did it give?
**A.** 1.8 nM

**Q.** For B6, which IC50 is on record?
**A.** 1.7 nM

**Q.** Which IC50 does the source give for B7 here?
**A.** 2.2 nM

**Q.** Which IC50 does the source give for B8 here?
**A.** 1.5 nM

**Q.** With B9 as the binder, how does the IC50 read?
**A.** 1.5 nM

**Q.** B10 was tested. Which IC50 did it give?
**A.** 1.5 nM

Each binder was assayed against T5, His-tagged human HVEM (assay: BLI OctetRed96, mAb captured, 200 nM His-HVEM).
Procedure, shortened: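 Kinetics (kon, koff, KD) were fitted from association in 200 nM His-HVEM in PBS and dissociation in PBS buffer. The mouse antibodies had been captured directly from culture supernatant onto anti-mouse IgG Fc sensors.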

**Q.** What does the source list for B1?
**A.** Kd: 28.8 nM; koff: 0.0143 s⁻¹; kon: 496000 M⁻¹ s⁻¹

**Q.** Which results are given for B2?
**A.** Kd: 18.7 nM; koff: 0.0107 s⁻¹; kon: 571000 M⁻¹ s⁻¹

**Q.** With B3 as the binder, how does the Kd read?
**A.** 3.92 nM

**Q.** And the koff?
**A.** 0.00148 s⁻¹

**Q.** What about the kon of the same binder?
**A.** 378000 M⁻¹ s⁻¹

**Q.** Which results are given for B4?
**A.** Kd: 11.7 nM; koff: 0.0197 s⁻¹; kon: 1.69e+06 M⁻¹ s⁻¹

**Q.** Which Kd does the source give for B5 here?
**A.** 7.09 nM

**Q.** And the koff?
**A.** 0.00115 s⁻¹

**Q.** And the kon?
**A.** 162000 M⁻¹ s⁻¹

**Q.** Which results are given for B6?
**A.** Kd: 14.9 nM; koff: 0.0049 s⁻¹; kon: 330000 M⁻¹ s⁻¹

**Q.** How did the Kd turn out when B7 was run?
**A.** 4.09 nM

**Q.** And the koff?
**A.** 0.00216 s⁻¹

**Q.** What about the kon of the same binder?
**A.** 528000 M⁻¹ s⁻¹

**Q.** For B8, which Kd is on record?
**A.** 9.59 nM

**Q.** What about the koff of the same binder?
**A.** 0.00247 s⁻¹

**Q.** What about the kon of the same binder?
**A.** 258000 M⁻¹ s⁻¹

**Q.** With B9 as the binder, how does the Kd read?
**A.** 10.7 nM

**Q.** And the koff?
**A.** 0.00355 s⁻¹

**Q.** And the kon?
**A.** 333000 M⁻¹ s⁻¹

**Q.** Which results are given for B10?
**A.** Kd: 4.95 nM; koff: 0.0023 s⁻¹; kon: 466000 M⁻¹ s⁻¹
